Key:
[1] = target: T1, human IL-33 (human, Biotinylated in Example 2; the site is not stated.); experiment: cell-based or functional assay
T1 chain: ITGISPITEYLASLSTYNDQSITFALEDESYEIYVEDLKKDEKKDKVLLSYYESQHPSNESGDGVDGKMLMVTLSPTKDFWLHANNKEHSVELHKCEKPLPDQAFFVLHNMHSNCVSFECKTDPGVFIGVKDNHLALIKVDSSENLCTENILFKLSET

[2] = target: T1, human IL-33; experiment: cell-based or functional assay
[3] = target: T1, human IL-33; experiment: cell-based or functional assay
[4] = target: T1, human IL-33; experiment: cell-based or functional assay
[5] = target: T1, human IL-33; experiment: cell-based or functional assay
[6] = target: T1, human IL-33; experiment: MSD-SET solution equilibrium titration, 25 C
[7] = target: T1, human IL-33; experiment: MSD-SET solution equilibrium titration, 37 C
[8] = target: T2, cynomolgus IL-33 (cynomolgus monkey, UniProt A0A2K5W3I1 112-269); experiment: MSD-SET solution equilibrium titration, 37 C
T2 construct: also called cyno IL-33; cynomolgus monkey IL-33
T2 sequence: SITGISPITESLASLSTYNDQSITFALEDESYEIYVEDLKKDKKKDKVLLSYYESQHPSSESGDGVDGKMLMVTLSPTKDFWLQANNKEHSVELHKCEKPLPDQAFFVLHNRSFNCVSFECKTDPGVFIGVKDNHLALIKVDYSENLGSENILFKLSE

[9] = target: T3, human IL-1a (human, UniProt P01583 113-271); experiment: BLI (Octet RED384), antibody on protein A sensors, single shot
T3 construct: also called IL-1a (R&D Systems #200-LA)
T3 sequence (looked up): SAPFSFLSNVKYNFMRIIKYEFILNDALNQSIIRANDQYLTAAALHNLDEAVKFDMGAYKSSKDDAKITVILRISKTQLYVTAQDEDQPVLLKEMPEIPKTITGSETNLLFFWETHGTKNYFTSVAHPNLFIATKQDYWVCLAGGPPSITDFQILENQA

[10] = target: T4, cFcgRIIa (cynomolgus monkey); experiment: SPR (ProteOn XPR36), anti-poly-histidine IgG surface, antibody as analyte, equilibrium fit, 25 C
T4 construct: extracellular domain; also called recombinant soluble cynomolgus monkey Fc gamma receptor IIa

[11] = target: T5, cFcgRIIb (cynomolgus monkey); experiment: as above
T5 construct: extracellular domain

[12] = target: T6, cFcgRIIIa (cynomolgus monkey); experiment: as above
T6 construct: extracellular domain
T6 sequence (Q8SPW2 17-208): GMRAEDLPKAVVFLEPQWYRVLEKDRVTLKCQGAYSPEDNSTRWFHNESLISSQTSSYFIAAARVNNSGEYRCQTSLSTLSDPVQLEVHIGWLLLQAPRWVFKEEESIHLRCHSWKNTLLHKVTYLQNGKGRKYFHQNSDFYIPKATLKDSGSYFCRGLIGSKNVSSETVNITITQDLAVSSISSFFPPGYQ

[13] = target: T7, human complement component C1q (human, UniProt P02745 23-245; P02746 28-253; P02747 29-245); experiment: SPR (ProteOn XPR36), antibody immobilised by amine coupling, C1q as analyte, equilibrium fit, 25 C
T7 construct: also called human recombinant soluble complement C1q; Sigma #C1740-5 mg
T7 sequence (P02745 23-245 limits assumed, chain 1 of 3): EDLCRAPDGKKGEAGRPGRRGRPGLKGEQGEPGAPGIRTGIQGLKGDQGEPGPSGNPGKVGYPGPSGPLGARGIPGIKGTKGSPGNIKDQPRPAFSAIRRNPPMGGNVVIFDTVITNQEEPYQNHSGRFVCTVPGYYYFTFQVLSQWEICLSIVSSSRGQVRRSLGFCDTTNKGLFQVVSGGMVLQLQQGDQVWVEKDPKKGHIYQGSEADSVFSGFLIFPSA
T7 sequence (P02746 28-253 limits assumed, chain 2 of 3): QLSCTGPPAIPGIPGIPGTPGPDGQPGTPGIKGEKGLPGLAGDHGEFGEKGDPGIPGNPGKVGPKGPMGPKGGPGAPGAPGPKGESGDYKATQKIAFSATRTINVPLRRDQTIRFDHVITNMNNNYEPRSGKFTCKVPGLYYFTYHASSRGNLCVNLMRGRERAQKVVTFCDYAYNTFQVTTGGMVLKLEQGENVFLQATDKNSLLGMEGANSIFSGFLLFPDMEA
T7 sequence (P02747 29-245 limits assumed, chain 3 of 3): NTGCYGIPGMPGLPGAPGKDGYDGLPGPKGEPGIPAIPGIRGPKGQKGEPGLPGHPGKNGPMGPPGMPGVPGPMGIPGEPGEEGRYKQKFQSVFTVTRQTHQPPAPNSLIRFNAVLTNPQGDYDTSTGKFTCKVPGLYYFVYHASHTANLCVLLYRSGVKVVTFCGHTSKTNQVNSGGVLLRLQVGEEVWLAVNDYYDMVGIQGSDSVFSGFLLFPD

[14] = target: T8, human recombinant neonatal receptor (FcRn) (human, UniProt P55899 24-297; P61769 21-119); experiment: SPR (ProteOn XPR36), antibody captured by protein L, FcRn as analyte, equilibrium fit, pH 6.0, 25 C
T8 construct: also called human FcRn; human recombinant soluble FcRn

[15] = target: T9, cynomolgus recombinant neonatal receptor (FcRn) (cynomolgus monkey, UniProt Q8SPV9 24-297; Q8SPW0 21-119); experiment: as above
T9 construct: extracellular domain; beta-2-microglobulin is not mentioned; also called cyno FcRn; cynomolgus monkey FcRn
T9 sequence (Q8SPV9 24-297 limits assumed, chain 1 of 2): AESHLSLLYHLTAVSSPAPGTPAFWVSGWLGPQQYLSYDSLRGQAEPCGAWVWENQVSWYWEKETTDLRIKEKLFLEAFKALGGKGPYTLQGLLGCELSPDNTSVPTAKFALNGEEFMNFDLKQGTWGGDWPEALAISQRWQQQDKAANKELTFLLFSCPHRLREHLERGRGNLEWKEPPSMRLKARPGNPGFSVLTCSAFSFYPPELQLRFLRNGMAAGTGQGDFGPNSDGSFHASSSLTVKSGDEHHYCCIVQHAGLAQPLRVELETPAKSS
T9 sequence (Q8SPW0 21-119 limits assumed, chain 2 of 2): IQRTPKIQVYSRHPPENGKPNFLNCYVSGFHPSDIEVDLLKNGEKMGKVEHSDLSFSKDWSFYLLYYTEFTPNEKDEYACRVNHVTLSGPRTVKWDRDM

IC50, inhibition of IL-33 (15 pM) induced superoxide generation from eosinophils, pre-complexed, Mean [1]: 19.6 pM
IC50, inhibition of IL-33 (15 pM) induced superoxide generation from eosinophils, pre-complexed, N = 1 [1]: 21.9 pM
IC50, inhibition of IL-33 (15 pM) induced superoxide generation from eosinophils, pre-complexed, N = 2 [1]: 23.5 pM
IC50, inhibition of IL-33 (15 pM) induced superoxide generation from eosinophils, pre-complexed, N = 3 [1]: 16.5 pM
IC50, inhibition of IL-33 (15 pM) induced superoxide generation from eosinophils, pre-complexed, N = 4 [1]: 25.6 pM
IC50, inhibition of IL-33 (15 pM) induced superoxide generation from eosinophils, pre-complexed, N = 5 [1]: 14.8 pM
IC50, inhibition of IL-33 (15 pM) induced superoxide generation from eosinophils, pre-complexed, N = 6 [1]: 10.5 pM
IC50, inhibition of IL-33 (15 pM) induced superoxide generation from eosinophils, pre-complexed, N = 7 [1]: 24.8 pM
pIC50, inhibition of IL-33 (15 pM) induced superoxide generation from eosinophils, pre-complexed, Mean [1]: 10.7
pIC50, inhibition of IL-33 (15 pM) induced superoxide generation from eosinophils, pre-complexed, N = 1 [1]: 10.7
pIC50, inhibition of IL-33 (15 pM) induced superoxide generation from eosinophils, pre-complexed, N = 2 [1]: 10.6
pIC50, inhibition of IL-33 (15 pM) induced superoxide generation from eosinophils, pre-complexed, N = 3 [1]: 10.8
pIC50, inhibition of IL-33 (15 pM) induced superoxide generation from eosinophils, pre-complexed, N = 4 [1]: 10.6
pIC50, inhibition of IL-33 (15 pM) induced superoxide generation from eosinophils, pre-complexed, N = 5 [1]: 10.8
pIC50, inhibition of IL-33 (15 pM) induced superoxide generation from eosinophils, pre-complexed, N = 6 [1]: 11
pIC50, inhibition of IL-33 (15 pM) induced superoxide generation from eosinophils, pre-complexed, N = 7 [1]: 10.6
IC50, inhibition of IL-33 (500 pM) induced IL-6 secretion from HUVECs, pre-complexed, Mean [2]: 217 pM
IC50, inhibition of IL-33 (500 pM) induced IL-6 secretion from HUVECs, pre-complexed, P7 [2]: 214 pM
IC50, inhibition of IL-33 (500 pM) induced IL-6 secretion from HUVECs, pre-complexed, P8 [2]: 204 pM
IC50, inhibition of IL-33 (500 pM) induced IL-6 secretion from HUVECs, pre-complexed, P9 [2]: 234 pM
IC50, inhibition of IL-33 (500 pM) induced IL-8 secretion from HUVECs, pre-complexed, Mean [2]: 390 pM
IC50, inhibition of IL-33 (500 pM) induced IL-8 secretion from HUVECs, pre-complexed, P7 [2]: 489 pM
IC50, inhibition of IL-33 (500 pM) induced IL-8 secretion from HUVECs, pre-complexed, P8 [2]: 278 pM
IC50, inhibition of IL-33 (500 pM) induced IL-8 secretion from HUVECs, pre-complexed, P9 [2]: 402 pM
pIC50, inhibition of IL-33 (500 pM) induced IL-6 secretion from HUVECs, pre-complexed, Mean [2]: 9.66
pIC50, inhibition of IL-33 (500 pM) induced IL-6 secretion from HUVECs, pre-complexed, P7 [2]: 9.67
pIC50, inhibition of IL-33 (500 pM) induced IL-6 secretion from HUVECs, pre-complexed, P8 [2]: 9.69
pIC50, inhibition of IL-33 (500 pM) induced IL-6 secretion from HUVECs, pre-complexed, P9 [2]: 9.63
pIC50, inhibition of IL-33 (500 pM) induced IL-8 secretion from HUVECs, pre-complexed, Mean [2]: 9.42
pIC50, inhibition of IL-33 (500 pM) induced IL-8 secretion from HUVECs, pre-complexed, P7 [2]: 9.31
pIC50, inhibition of IL-33 (500 pM) induced IL-8 secretion from HUVECs, pre-complexed, P8 [2]: 9.56
pIC50, inhibition of IL-33 (500 pM) induced IL-8 secretion from HUVECs, pre-complexed, P9 [2]: 9.4
IC50, inhibition of IL-33 (5.0 nM) induced β-hexosaminidase release from basophils, pre-complexed, Mean [3]: 2.03 nM
IC50, inhibition of IL-33 (5.0 nM) induced β-hexosaminidase release from basophils, pre-complexed, donor #33235 [3]: 1.39 nM
IC50, inhibition of IL-33 (5.0 nM) induced β-hexosaminidase release from basophils, pre-complexed, donor #90290 [3]: 4.53 nM
IC50, inhibition of IL-33 (5.0 nM) induced β-hexosaminidase release from basophils, pre-complexed, donor #90356 [3]: 1.23 nM
IC50, inhibition of IL-33 (5.0 nM) induced β-hexosaminidase release from basophils, pre-complexed, donor #90541 [3]: 0.97 nM
pIC50, inhibition of IL-33 (5.0 nM) induced β-hexosaminidase release from basophils, pre-complexed, Mean [3]: 8.78
pIC50, inhibition of IL-33 (5.0 nM) induced β-hexosaminidase release from basophils, pre-complexed, donor #33235 [3]: 8.86
pIC50, inhibition of IL-33 (5.0 nM) induced β-hexosaminidase release from basophils, pre-complexed, donor #90290 [3]: 8.34
pIC50, inhibition of IL-33 (5.0 nM) induced β-hexosaminidase release from basophils, pre-complexed, donor #90356 [3]: 8.91
pIC50, inhibition of IL-33 (5.0 nM) induced β-hexosaminidase release from basophils, pre-complexed, donor #90541 [3]: 9.01
IC50, inhibition of 10 ng/mL IL-33/IL-12 induced IFN-γ secretion from whole blood, pre-complexed, Mean [4]: 1.95 nM
IC50, inhibition of 10 ng/mL IL-33/IL-12 induced IFN-γ secretion from whole blood, pre-complexed, donor #91232 [4]: 0.63 nM
IC50, inhibition of 10 ng/mL IL-33/IL-12 induced IFN-γ secretion from whole blood, pre-complexed, donor #91845 [4]: 2.72 nM
IC50, inhibition of 10 ng/mL IL-33/IL-12 induced IFN-γ secretion from whole blood, pre-complexed, donor #92023 [4]: 1.88 nM
IC50, inhibition of 10 ng/mL IL-33/IL-12 induced IFN-γ secretion from whole blood, pre-complexed, donor #92257 [4]: 0.81 nM
IC50, inhibition of 10 ng/mL IL-33/IL-12 induced IFN-γ secretion from whole blood, pre-complexed, donor #92258 [4]: 3.72 nM
pIC50, inhibition of 10 ng/mL IL-33/IL-12 induced IFN-γ secretion from whole blood, pre-complexed, Mean [4]: 8.8
pIC50, inhibition of 10 ng/mL IL-33/IL-12 induced IFN-γ secretion from whole blood, pre-complexed, donor #91232 [4]: 9.19
pIC50, inhibition of 10 ng/mL IL-33/IL-12 induced IFN-γ secretion from whole blood, pre-complexed, donor #91845 [4]: 8.56
pIC50, inhibition of 10 ng/mL IL-33/IL-12 induced IFN-γ secretion from whole blood, pre-complexed, donor #92023 [4]: 8.72
pIC50, inhibition of 10 ng/mL IL-33/IL-12 induced IFN-γ secretion from whole blood, pre-complexed, donor #92257 [4]: 9.08
pIC50, inhibition of 10 ng/mL IL-33/IL-12 induced IFN-γ secretion from whole blood, pre-complexed, donor #92258 [4]: 8.42
IC50, inhibition of 10 ng/mL human IL-33 induced IL-6 production, mouse bone marrow-derived mast cells [5]: ~0.566 nM
IC50, inhibition of 10 ng/mL human IL-33 induced IL-13 production, mouse bone marrow-derived mast cells [5]: ~0.567 nM
IC50, inhibition of 10 ng/mL human IL-33 induced IL-18 production, mouse bone marrow-derived mast cells [5]: ~0.631 nM
IC50, inhibition of 10 ng/mL human IL-33 induced TNF-α production, mouse bone marrow-derived mast cells [5]: ~0.581 nM
pIC50, inhibition of 10 ng/mL human IL-33 induced IL-6 production, mouse bone marrow-derived mast cells [5]: ~9.25
pIC50, inhibition of 10 ng/mL human IL-33 induced IL-13 production, mouse bone marrow-derived mast cells [5]: ~9.25
pIC50, inhibition of 10 ng/mL human IL-33 induced IL-18 production, mouse bone marrow-derived mast cells [5]: ~9.2
pIC50, inhibition of 10 ng/mL human IL-33 induced TNF-α production, mouse bone marrow-derived mast cells [5]: ~9.24
Kd [6]: 0.0033 nM
Kd [7]: 0.0135 nM
Kd [8]: 0.0565 nM
binding result [9]: no binding (tested: 100 nM)
Kd [10]: 2110 nM
Kd [11]: 1100 nM
Kd [12]: 119 nM
Kd [13]: 213 nM
Kd [14]: 25 nM
Kd [15]: 24.7 nM
B1: 22A06-458 (antibody, human IgG1, kappa)
heavy: QVQLVQSGAEVKKPGASVKVSCKASGYTFISYGMHWVRQAPGQGLEWMGEINPHGGSTSYAQKFKGRVTMTRDTSTSTVYMELSSLRSEDTAVYYCARPSAAYSHYLGIDLWGRGTLVTVSSASTKGPSVFPLAPSSKSTSGGTAALGCLVKDYFPEPVTVSWNSGALTSGVHTFPAVLQSSGLYSLSSVVTVPSSSLGTQTYICNVNHKPSNTKVDKKVEPKSCDKTHTCPPCPAPELLGGPSVFLFPPKPKDTLYITREPEVTCVVVDVSHEDPEVKFNWYVDGVEVHNAKTKPREEQYNSTYRVVSVLTVLHQDWLNGKEYKCKVSNKALPAPIEKTISKAKGQPREPQVYTLPPSRDELTKNQVSLTCLVKGFYPSDIAVEWESNGQPENNYKTTPPVLDSDGSFFLYSKLTVDKSRWQQGNVFSCSVMHEALHNHYTQKSLSLSPGK
light: DIQMTQSPSSVSASVGDRVTITCRASQGISSWLAWYQQKPGKAPKLLIYAASRLQSGVPSRFSGSGSGTDFTLTISSLQPEDFATYYCQQANVFPLTFGGGTKVEIKRTVAAPSVFIFPPSDEQLKSGTASVVCLLNNFYPREAKVQWKVDNALQSGNSQESVTEQDSKDSTYSLSSTLTLSKADYEKHKVYACEVTHQGLSSPVTKSFNRGEC
